This passage reports Kd, koff and kon results from patent US20120177664A1 (IMMUNAS PHARMA, published 2012).

Substitutions are numbered along the chain they refer to.

The labels stand for the following.
B1: IR-112 antibody (antibody, mouse IgG2a, V domains shown)
VH: QVTLKESGPGILKPSQTLSLTCSFSGFSLSTSGMGVGWIRQPSGKGLEWLAHIWWDDDKYYNPSLKSQLTISKDTSRNQVFLKITSVDTADTATYYCARRSMITTNDYFDYWGQGTTLTVSS
VL: DVLMTQTPLSLPVSLGDQASISCRSSQSIVHSNGNTYLEWYLQKPGQSPKLLIYKVSNRFSGVPDRFSGSGSGTDFTLKISRVEAEDLGVYYCFQGSHVPPTFGGGTKLEIK
notes: mouse IgG2a
B2: IR-150 antibody (antibody, mouse IgG2b, V domains shown)
VH: not shown
VL: B1 VL with L3V, I29L, E39H, Y92F, F94S, G96S, S97T, P101L, G105A, I111L
notes: mouse IgG2b
B3: IR-132 antibody (antibody, mouse IgG2b, V domains shown)
VH: DVQLVESGGGLVQPGGSRKLSCAASGFTFSSFGMHWVRQAPEKGLEWVAYISSGSSTIYYADTVKGRFTISRDNPKNTLFLQMTSLRSEDTAMYYCARDGNYVGWFAYWGQGTLVTVSA
VL: B1 VL with L3V, I29L, E39H, Y92F, F94S, G96S, S97T, P101L, G105A, I111L
notes: mouse IgG2b
B4: IR-139 antibody (antibody, mouse IgG2b, V domains shown)
VH: DVQLVESGGGLVQPGGSRKLSCAASGFTFSSFGMHWVRQAPEKGLEWVAYISSGSSTIYYADTVKGRFTISRDNPKNTLFLQMTSLRSEDTAMYYCARDEGYFDYWGQGTTLTVSS
VL: B1 VL with L3V, I29L, E39H, Y92F, F94S, G96S, S97T, P101L, G105A, I111L
notes: mouse IgG2b
B5: IR-117 antibody (antibody, mouse IgG2b, V domains shown)
VH: not shown
VL: B1 VL with L3V, I29L, E39H, Y92F, F94S, G96S, S97T, P101L, G105A, I111L
notes: mouse IgG2b
B6: IR-155 antibody (antibody, V domains shown)
VH: DVQLVESGGGLVQPGGSRKLSCAASGFTFSSFGMHWVRQAPEKGLEWVAYISSGSSTIYYADTVKGRFTISRDNPKNTLFLQMTSLRSEDTAMYYCARLDGYRGDYWGQGTTLTVSS
VL: B1 VL with L3V, I29L, E39H, Y92F, F94S, G96S, S97T, P101L, G105S
notes: mouse IgG2a
B7: IR-154 antibody (antibody, V domains shown)
VH: DVQLVESGGGLVQPGGSRKLSCAASGFSFSSFGMHWVRQAPEKGLEWVAYISSGRSTIYYADTVKGRFTISRDNPKNTLFLQMTSLRSEDTAMYYCARLRGNLDYAMDYWGQGTSVTVSS
VL: B1 VL with L3V, I29L, E39H, Y92F, F94S, G96S, S97T, P101F, G105S
notes: mouse IgG2a
B8: IR-118 antibody (antibody, mouse IgG2a, V domains shown)
VH: QVQLKESGPGLVAPSQSLSITCTISGFSLTSYGVHWVRQPPGKGLEWLVVIWSDGSTTYNSALKSRLSISKDNSKSQLFLKMNSLQTDDTAMYYCARHSYRYGLMDYWGQGTSVTVSS
VL: B1 VL with L3V, I29L, E39H, Y92F, F94S, G96S, S97T, P101L, G105A, I111L
notes: mouse IgG2a
B9: IR-135 antibody (antibody, V domains shown)
VH: QVQLQQSGAELAKPGASVKMSCKASGYTFTSYWMHWVKQRPGQGLEWIGYINPSTGYTEYNQKFKDKATLTADKSSSTAYMQLSSLTSEDSAVYYCDYYGSSYGYFDVWGAGTTVTVSS
VL: DVVMTQTPLSLPVSLGDQASISCRSSQSLVHSNGNTYLHWYLQKPGQSPKLLIYKVSNRFSGVPDRFSGSGSGTDFTLKISRVEAEDLGVFFCSQSTHVPLTFGAGTKLELK
notes: mouse IgG2a

The target of this experiment is T1, A beta oligomer (synthetic A beta1-40, HCl form, 0.1 mg/ml in PBS, incubated at 37 degrees C for one hour) (UniProt P05067 672-711).
T1 construct: domain: A beta1-40; non-fibrous multimer of the peptide; also called A beta 1-40 oligomer
Put plainly: SPR (Biacore 3000). How it is done:
The analysis was carried out by Surface Plasmon Resonance (SPR) using Biacore 3000 (GE Healthcare Sciences).
As a reminder, the Kd is the equilibrium constant for the complex coming apart. By koff is commonly meant the first-order rate constant of dissociation. A high value points to a short-lived complex. By kon is commonly meant the second-order rate constant of association. A higher kon goes with fast association. Molecule B1 came in with a Kd of 41.1 nM, a koff of 0.00376 s⁻¹ and a kon of 91400 M⁻¹ s⁻¹.

B2 displayed a Kd of 517 nM, a koff of 0.124 s⁻¹ and a kon of 240000 M⁻¹ s⁻¹.

For the molecule B3, binding was characterised by a dissociation constant (Kd) of 22.1 nM, the koff was 0.00517 s⁻¹ and the kon stood at 234000 M⁻¹ s⁻¹.

The molecule B4 gave an equilibrium dissociation constant (Kd) of 50.6 nM, a koff of 0.00165 s⁻¹ and a kon of 32600 M⁻¹ s⁻¹.

B5 registered a Kd of 921 nM, a koff of 0.0668 s⁻¹ and an on-rate (kon) of 72500 M⁻¹ s⁻¹.

B6: binding was put at a Kd of 1050 nM, the koff was found to be 0.37 s⁻¹ and the kon amounted to 351000 M⁻¹ s⁻¹.

Molecule B7 returned a Kd of 1050 nM, a koff of 0.41 s⁻¹ and a kon of 389000 M⁻¹ s⁻¹.

In turn, B8 returned a Kd of 27.5 nM, a koff of 0.00153 s⁻¹ and a kon of 55700 M⁻¹ s⁻¹.

The molecule B9 gave a dissociation constant (Kd) of 1290 nM, a koff of 0.116 s⁻¹ and an on-rate (kon) of 89900 M⁻¹ s⁻¹.
